Type in all cases: biochemical
Data set [1] can be described thus: Oxidase activity testing against ebastine. To be noted: substrate Ebastine; Batch 2. As for the experimental part: (§1) Lyophilised material of recombinant P450, ferredoxin and ferredoxin reductase proteins was made as described in Example 4 and reconstituted in high purity water to the original volume. Biocatalysis was performed with shaking incubation at 27° C. in the following conditions: 100 mM potassium phosphate pH 8.0, 5 mM MgCl2 (both present in the reconstituted enzyme preparation) and 0.1 mg/ml substrate compound such as ambroxide (Sigma-Aldrich, UK), carbamazepine (Sigma-Aldrich, UK), diclofenac (Sigma-Aldrich, UK), tivantinib (MedChemtronica, Sweden), clarithromycin (Tokyo Chemical Industry, Japan), sclareol (Sigma-Aldrich, UK), celecoxib (LC Laboratories, USA), buparvaquone (Sigma-Aldrich, UK), BIRB796 (MedChemExpress, USA), vanoxerine (CiVentiChem, USA), valsartan (Tokyo Chemical Industry, Japan), ruxolitinib (LC Laboratories, USA), perindopril (Selleckchem, USA), solifenacin (Key Organics, UK), 7-ethoxycoumarin (Tokyo Chemical Industry, Japan), tofacitinib (LC Laboratories, USA), ebastine (Key Organics, UK), efavirenz (Key Organics, UK), propanalol (Sigma-Aldrich, UK) and tolbutamide (Key Organics, UK).
(§2) Concentrations of P450, ferredoxin and ferredoxin reductase were as extracted (Example 4). Reactions were initiated by addition of 10× stock of cofactor mixture (50 mM G6P, 10 mM NADP+, 10 UN/ml G6PDH) to provide a final volume of e.g., 10 μl to 90 μl for 100 μl total reaction volumes. After 16-20 hours, reactions were extracted with an equal volume of acetonitrile, centrifuged to remove precipitated proteins and conversion assessed by UPLC-MS analysis.
(§3) UPLC Data were Obtained as Follows: • Column: Acquity UPLC BEH Shield RP18 1.7 μm 2.1 mm i.d. 50 mm length • Solvents: H2O, B: Acetonitrile, both with 0.1% Formic acid • Flow rate: 1.0 ml/min • Detector: Waters Acquity UPLC PDA (UV-Vis detection) and Waters Acquity UPLC QDA (MS)
(§4) Representative results for the % conversions of various substrates to products by enzymes with mutations at position T109 or L198 and double mutants at T109 and 1129/L198 are shown in Table 4 below.

Data set [2] in a line: Oxidase activity testing against valsartan. The note with it: for Average % conversion: substrate Valsartan, Batch 2. As for the experimental part: as §1, §2, §3, §4
Data set [3] in a line: Oxidase activity testing against celecoxib. The note with it: substrate Celecoxib; Batch 2. As for the experimental part:
as §1, §2, §3, §4

Data set [4] is described as follows: Oxidase activity testing against vanoxerine. To be noted: for Average % conversion: substrate Vanoxerine, Batch 2. As for the experimental part: as §1, §2, §3, §4
Data set [5] can be described thus: Oxidase activity testing against 7-ethoxycoumarin. The note with it: substrate 7-ethoxycoumarin; Batch 2. As for the experimental part: as §1, §2, §3, §4
Data set [6] in a line: Oxidase activity testing against clarithromycin. The note with it: for Average % conversion: substrate Clarithromycin, Batch 2. As for the experimental part: as §1, §2, §3, §4
Data set [7] is described as follows: Oxidase activity testing against BIRB796. To be noted: substrate BIRB796; Batch 2. As for the experimental part: as §1, §2, §3, §4
Data set [8] can be described thus: Oxidase activity testing against ruxolitinib. To be noted: substrate Ruxolitinib; Batch 2. As for the experimental part:
as §1, §2, §3, §4

A short description of data set [9]: Oxidase activity testing against tofacitinib. The note with it: substrate Tofacitinib; Batch 2. As for the experimental part: as §1, §2, §3, §4
Data set [10] can be described thus: Oxidase activity testing against tolbutamide. To be noted: substrate Tolbutamide; Batch 2. As for the experimental part: as §1, §2, §3, §4
The nature of data set [11]: Oxidase activity testing against solifenacin. To be noted: substrate Solifenacin; Batch 2. As for the experimental part:
as §1, §2, §3, §4

The nature of data set [12]: Oxidase activity testing against efavirenz. The note with it: for Average % conversion: substrate Efavirenz, Batch 2. As for the experimental part: as §1, §2, §3, §4
Data set [13] in a line: Oxidase activity testing against perindopril. To be noted: for Average % conversion: substrate Perindopril, Batch 2. As for the experimental part:
as §1, §2, §3, §4

A short description of data set [14]: Oxidase activity testing against propanalol. To be noted: for Average % conversion: substrate Propanalol, Batch 2. As for the experimental part:
as §1, §2, §3, §4

Data set [15] is described as follows: Oxidase activity testing against sclareol. The note with it: for Average % conversion: substrate Sclareol, Batch 2, UPLC-MS UV or MS peak areas. As for the experimental part:
as §1, §2, §3, §4

A short description of data set [16]: Oxidase activity testing against buparvaquone. To be noted: substrate Buparvaquone; Batch 2. As for the experimental part:
as §1, §2, §3, §4

The record followed here is patent publication US20240263208A1, “CYTOCHROME P450 ENZYME” (HYPHA DISCOVERY LTD., priority 2021, published 2024).

B1: M30: P450SeuC10 with L198F and T109F double mutations, SEQ ID NO: 126 (protein)
chain: MKIGTTHLTRLRGLSMTELTDITGPAAQAETVAFPQDRTCPYHPPTGYDPLRDGRPLSRVTLYDGREVWLVTAQATARALLADPRLSTDRRRDGFPVPTPRFAAGRDRFLALLGLDDPEHHRQRRLLIPSFTLKRATAQRPWIQRIVDELLDAMIARGPVADLVSAFALPVPSMVICELLGVPYADHEFFEEQSRRLFRGPTGADTTDARDRLEAYLGDLIDAKAKEAEPGDGILDDLVHNRLRAGELDRSVLVSLAVILLVAGHETTANMISLGTYTLLQHPERLAELRADPSLLPAVVEELLRMLSIAEGLQRLALEDIEIDGITIRAGEGVLFSTSVINRDTAVYEDPDDLDFHRADRHHVAFGFGIHQCLGQNLARAELEIALGSLFTRLPGLRLAAPAEEIPFKPGDTVQGMLELPVTW
modifications: SeuC10M30
For B1, the Average % conversion in [1] was determined as 9.7%; in data set [2], 17.1%; in data set [3] it was 21.6%; in data set [4], 79.1%; in data set [5] it was 38%; in data set [6], 0.9%. Moreover, the Average % conversion in data set [7] is given as 38.5%; in [8], 99.1%; in [9], 33.3%; in [10] it was 35.7%; in data set [11], 3%; in data set [12], 0%. The Average % conversion is given as 61.4% in data set [13], 0% in [14] and 31% in data set [15]. Besides, the “conversion of perindopril compared to wild-type (in words)” value in data set [13] is recorded as “significantly increased conversion”.

B2: M32: P450SeuC10 with T109F and I259L double mutations, SEQ ID NO: 130 (protein)
chain: MKIGTTHLTRLRGLSMTELTDITGPAAQAETVAFPQDRTCPYHPPTGYDPLRDGRPLSRVTLYDGREVWLVTAQATARALLADPRLSTDRRRDGFPVPTPRFAAGRDRFLALLGLDDPEHHRQRRLLIPSFTLKRATAQRPWIQRIVDELLDAMIARGPVADLVSAFALPVPSMVICELLGVPYADHEFFEEQSRRLLRGPTGADTTDARDRLEAYLGDLIDAKAKEAEPGDGILDDLVHNRLRAGELDRSVLVSLAVLLLVAGHETTANMISLGTYTLLQHPERLAELRADPSLLPAVVEELLRMLSIAEGLQRLALEDIEIDGITIRAGEGVLFSTSVINRDTAVYEDPDDLDFHRADRHHVAFGFGIHQCLGQNLARAELEIALGSLFTRLPGLRLAAPAEEIPFKPGDTVQGMLELPVTW
modifications: SeuC10M32
Take B2: the Average % conversion in data set [1] worked out at 10.4%; in data set [2], 66.8%; in [3], 35.6%; in data set [4], 88.8%; in data set [5], 20.2%; in data set [6], 23.3%. Further, the Average % conversion in [7] stood at 90.6%; in [8], 99.2%; in data set [9], 40.8%; in data set [16], 31.5%; in data set [10], 56.1%; in [11], 25.9%. For the same molecule, the Average % conversion in [12] came out at 1.2%; in [13], 45.6%; in data set [14], 1.6%; in data set [15], 84.5%. Further, in data set [2], the “conversion of valsartan compared to wild-type (in words)” value was “significantly increased conversion”. Also, the “conversion of vanoxerine compared to wild-type (in words)” value in data set [4] is listed as “significantly increased conversion”. The “conversion of clarithromycin, not converted by wild-type (in words)” value in [6] is listed as “achieved conversion”. Besides, the “new product at 3.12 minutes (3″-O-demethylclarithromycin) from clarithromycin” value in [6] (chromatographic analysis, FIGS. 5 and 6) is “production of a new product”. The “conversion of efavirenz, not converted by wild-type (in words)” value in data set [12] was “achieved conversion”. In addition, the “conversion of propanalol, not converted by wild-type (in words)” value in data set [14] is on record as “achieved conversion”. The “conversion of sclareol compared to wild-type (in words)” value in [15] is reported as “significantly increased conversion”. The “product at 1.42 minutes from sclareol” value in data set [15] (FIG. 7) is “increased production”. In addition, in data set [15] (FIG. 7), the “product at 1.55 minutes from sclareol” value is on record as “generated a new product”.
